Assays:
Liver microsome = assay: Drug level in human liver microsomes treated with darexaban at 30 uM after 10 mins by LC-MS/MS analysis in presence of UDPGA; type: ADME
[1] = Drug level in human intestinal microsomes treated with darexaban at 30 uM after 10 mins by LC-MS/MS analysis in presence of UDPGA; type: ADME, Intestine, Microsome
[2] = substrate: COc1ccc(C(=O)Nc2cccc(O)c2NC(=O)c2ccc(N3CCCN(C)CC3)cc2)cc1; assay: Activity of human recombinant UGT1A7 expressed in baculovirus-infected insect cells assessed as enzyme-mediated glucuronidation after 10 mins by Michaelis-Menten plot analysis in presence of UDPGA; type: ADME
[3] = substrate: COc1ccc(C(=O)Nc2cccc(O)c2NC(=O)c2ccc(N3CCCN(C)CC3)cc2)cc1; assay: Activity of human recombinant UGT1A8 expressed in baculovirus-infected insect cells assessed as enzyme-mediated glucuronidation after 10 mins in presence of UDPGA; type: ADME
[4] = substrate: COc1ccc(C(=O)Nc2cccc(O)c2NC(=O)c2ccc(N3CCCN(C)CC3)cc2)cc1; assay: Activity of human recombinant UGT1A9 expressed in baculovirus-infected insect cells assessed as enzyme-mediated glucuronidation after 5 mins by Michaelis-Menten plot analysis in presence of UDPGA and 0.1% fatty acid free BSA; type: ADME
[5] = substrate: COc1ccc(C(=O)Nc2cccc(O)c2NC(=O)c2ccc(N3CCCN(C)CC3)cc2)cc1; assay: Activity of human recombinant UGT1A9 expressed in baculovirus-infected insect cells assessed as enzyme-mediated glucuronidation after 5 mins by Michaelis-Menten plot analysis in presence of UDPGA and 2% fatty acid free BSA; type: ADME
[6] = substrate: COc1ccc(C(=O)Nc2cccc(O)c2NC(=O)c2ccc(N3CCCN(C)CC3)cc2)cc1; assay: Activity of human recombinant UGT1A9 expressed in baculovirus-infected insect cells assessed as enzyme-mediated glucuronidation after 5 mins by Michaelis-Menten plot analysis in presence of UDPGA; type: ADME
[7] = substrate: COc1ccc(C(=O)Nc2cccc(O)c2NC(=O)c2ccc(N3CCCN(C)CC3)cc2)cc1; assay: Activity of human recombinant UGT1A9 expressed in baculovirus-infected insect cells assessed as enzyme-mediated glucuronidation after 5 mins by Michaelis-Menten plot analysis in presence of UDPGA and absence of fatty acid free BSA; type: ADME
[8] = substrate: COc1ccc(C(=O)Nc2cccc(O)c2NC(=O)c2ccc(N3CCCN(C)CC3)cc2)cc1; assay: Activity of human recombinant UGT1A9 expressed in baculovirus-infected insect cells assessed as enzyme-mediated glucuronidation after 5 mins by Michaelis-Menten plot analysis in presence of UDPGA and 0.5% fatty acid free BSA; type: ADME
[9] = substrate: COc1ccc(C(=O)Nc2cccc(O)c2NC(=O)c2ccc(N3CCCN(C)CC3)cc2)cc1; assay: Activity of human recombinant UGT1A10 expressed in baculovirus-infected insect cells assessed as enzyme-mediated glucuronidation after 10 mins in presence of UDPGA; type: ADME

Molecule: COc1ccc(C(=O)Nc2cccc(O[C@@H]3O[C@H](C(=O)O)[C@@H](O)[C@H](O)[C@H]3O)c2NC(=O)c2ccc(N3CCCN(C)CC3)cc2)cc1
- Drug metabolism (Liver microsome): metabolite_detected
- Drug metabolism [1]: metabolite_detected

B1: UDP-glucuronosyltransferase 1A7 (Homo sapiens) (protein)
chain: MARAGWTGLLPLYVCLLLTCGFAKAGKLLVVPMDGSHWFTMQSVVEKLILRGHEVVVVMPEVSWQLGRSLNCTVKTYSTSYTLEDQDREFMVFADARWTAPLRSAFSLLTSSSNGIFDLFFSNCRSLFNDRKLVEYLKESCFDAVFLDPFDACGLIVAKYFSLPSVVFARGIFCHYLEEGAQCPAPLSYVPRLLLGFSDAMTFKERVWNHIMHLEEHLFCPYFFKNVLEIASEILQTPVTAYDLYSHTSIWLLRTDFVLEYPKPVMPNMIFIGGINCHQGKPVPMEFEAYINASGEHGIVVFSLGSMVSEIPEKKAMAIADALGKIPQTVLWRYTGTRPSNLANNTILVKWLPQNDLLGHPMTRAFITHAGSHGVYESICNGVPMVMMPLFGDQMDNAKRMETKGAGVTLNVLEMTSEDLENALKAVINDKSYKENIMRLSSLHKDRPVEPLDLAVFWVEFVMRHKGAPHLRPAAHDLTWYQYHSLDVIGFLLAVVLTVAFITFKCCAYGYRKCLGKKGRVKKAHKSKTH
- Km [2]: 59.1 µM
- Vmax [2]: 0.000725 µmol/min

B2: UDP-glucuronosyltransferase 1A8 (Homo sapiens) (protein)
chain: MARTGWTSPIPLCVSLLLTCGFAEAGKLLVVPMDGSHWFTMQSVVEKLILRGHEVVVVMPEVSWQLGKSLNCTVKTYSTSYTLEDLDREFMDFADAQWKAQVRSLFSLFLSSSNGFFNLFFSHCRSLFNDRKLVEYLKESSFDAVFLDPFDACGLIVAKYFSLPSVVFARGIACHYLEEGAQCPAPLSYVPRILLGFSDAMTFKERVRNHIMHLEEHLFCQYFSKNALEIASEILQTPVTAYDLYSHTSIWLLRTDFVLDYPKPVMPNMIFIGGINCHQGKPLPMEFEAYINASGEHGIVVFSLGSMVSEIPEKKAMAIADALGKIPQTVLWRYTGTRPSNLANNTILVKWLPQNDLLGHPMTRAFITHAGSHGVYESICNGVPMVMMPLFGDQMDNAKRMETKGAGVTLNVLEMTSEDLENALKAVINDKSYKENIMRLSSLHKDRPVEPLDLAVFWVEFVMRHKGAPHLRPAAHDLTWYQYHSLDVIGFLLAVVLTVAFITFKCCAYGYRKCLGKKGRVKKAHKSKTH
- Km [3]: 11.8 µM
- Vmax [3]: 0.000608 µmol/min

B3: UDP-glucuronosyltransferase 1A9 (Homo sapiens) (protein)
chain: MACTGWTSPLPLCVCLLLTCGFAEAGKLLVVPMDGSHWFTMRSVVEKLILRGHEVVVVMPEVSWQLGRSLNCTVKTYSTSYTLEDLDREFKAFAHAQWKAQVRSIYSLLMGSYNDIFDLFFSNCRSLFKDKKLVEYLKESSFDAVFLDPFDNCGLIVAKYFSLPSVVFARGILCHYLEEGAQCPAPLSYVPRILLGFSDAMTFKERVRNHIMHLEEHLLCHRFFKNALEIASEILQTPVTEYDLYSHTSIWLLRTDFVLDYPKPVMPNMIFIGGINCHQGKPLPMEFEAYINASGEHGIVVFSLGSMVSEIPEKKAMAIADALGKIPQTVLWRYTGTRPSNLANNTILVKWLPQNDLLGHPMTRAFITHAGSHGVYESICNGVPMVMMPLFGDQMDNAKRMETKGAGVTLNVLEMTSEDLENALKAVINDKSYKENIMRLSSLHKDRPVEPLDLAVFWVEFVMRHKGAPHLRPAAHDLTWYQYHSLDVIGFLLAVVLTVAFITFKCCAYGYRKCLGKKGRVKKAHKSKTH
- Km [4]: 22.4 µM
- Km [5]: 18.3 µM
- Km [6]: 58.2 µM
- Km [7]: 35.5 µM
- Km [8]: 22.7 µM

B4: UDP-glucuronosyltransferase 1A10 (Homo sapiens) (protein)
chain: MARAGWTSPVPLCVCLLLTCGFAEAGKLLVVPMDGSHWFTMQSVVEKLILRGHEVVVVMPEVSWQLERSLNCTVKTYSTSYTLEDQNREFMVFAHAQWKAQAQSIFSLLMSSSSGFLDLFFSHCRSLFNDRKLVEYLKESSFDAVFLDPFDTCGLIVAKYFSLPSVVFTRGIFCHHLEEGAQCPAPLSYVPNDLLGFSDAMTFKERVWNHIVHLEDHLFCQYLFRNALEIASEILQTPVTAYDLYSHTSIWLLRTDFVLDYPKPVMPNMIFIGGINCHQGKPLPMEFEAYINASGEHGIVVFSLGSMVSEIPEKKAMAIADALGKIPQTVLWRYTGTRPSNLANNTILVKWLPQNDLLGHPMTRAFITHAGSHGVYESICNGVPMVMMPLFGDQMDNAKRMETKGAGVTLNVLEMTSEDLENALKAVINDKSYKENIMRLSSLHKDRPVEPLDLAVFWVEFVMRHKGAPHLRPAAHDLTWYQYHSLDVIGFLLAVVLTVAFITFKCCAYGYRKCLGKKGRVKKAHKSKTH
- Km [9]: 34.2 µM
- Vmax [9]: 0.00136 µmol/min
